In the RNAGym collection of RNA variant scans (doi:10.7554/elife.90254) one finds self-cleavage data, which are given here for 39 variants.

B1: LINE1-full (parent)
chain: UACGUAGGUGGUUUUCCCCUGAUAGUGCUAAGGGGGCCUGGAAGUUUGGACUGGGCAGAGCUCAACACAGCGUGGCAAAGUGGCUGUGGCUAGACUGCCUCUCUGGAUUCCUCGUCACUCAGCAGGGCAUCUCUGAGAGAAAUGCC

Variants of B1 are the subject of this series. Briefly: self-cleavage, relative activity (ratio to wild type); higher = more cleavage; in vitro, sequencing; the parent is a self-cleaving ribozyme.
For UACGUAGGUGGUUUUCCCCUGAUAGUGCUAAGGGGGCCUGGAAGUUUGGACUGGGCAGAGCUCAACACAGCGUGGCAAAGUGGCUGUGGCUAGACUGCCUCUCUGGAUUCCUCGUCACCCAUCAGGGCAUCUCUGAGAGAAAUGCC, the self-cleavage came to 2.35.

As for UACGUAGGUGGUUUUCCCCUGAUAGUGCUAAGGGGGCCUGGAAGUUUGGACUGGGCAGAGCUCAACACAGCGUGGCAAAGUGGCUGUGGCUAGACUGCCUCUCUGGAUUCCUCGUCACCCACCAGGGCAUCUCUGAGAGAAAUGCC, the self-cleavage was found to be 2.

As to UACGUAGGUGGUUUUCCCCUGAUAGUGCUAAGGGGGCCUGGAAGUUUGGACUGGGCAGAGCUCAACACAGCGUGGCAAAGUGGCUGUGGCUAGACUGCCUCUCUGGAUUCCUCGUCACGCAGCAGGGCGUCUCUGAGAGAAAUGCC, the self-cleavage was determined as 1.15.

For UACGUAGGUGGUUUUCCCCUGAUAGUGCUAAGGGGGCCUGGAAGUUUGGACUGGGCAGAGCUCAACACAGCGUGGCAAAGUGGCUGUGGCUAGACUGCCUCUCUGGAUUCCUCGUCACGCAGCAGGGCAUCUCUGAGAGGAAUGCC, the self-cleavage came to 2.22.

Take UACGUAGGUGGUUUUCCCCUGAUAGUGCUAAGGGGGCCUGGAAGUUUGGACUGGGCAGAGCUCAACACAGCGUGGCAAAGUGGCUGUGGCUAGACUGCCUCUCUGGAUUCCUCGUCACCCAGCAGGGCGUCUCUGAGAGAAAUGCC: the self-cleavage came to 1.88.

For UACGUAGGUGGUUUUCCCCUGAUAGUGCUAAGGGGGCCUGGAAGUUUGGACUGGGCAGAGCUCAACACAGCGUGGCAAAGUGGCUGUGGCUAGACUGCCUCUCUGGAUUCCUCGUCACUAGGCAGGGCAUCUCUGAGAGAAAUGCC, the self-cleavage worked out at 1.39.

Take UACGUAGGUGGUUUUCCCCUGAUAGUGCUAAGGGGGCCUGGAAGUUUGGACUGGGCAGAGCUCAACACAGCGUGGCAAAGUGGCUGUGGCUAGACUGCCUCUCUGGAUUCCUCGUCACUAUGCAGGGCAUCUCUGAGAGAAAUGCC: the self-cleavage worked out at 0.93.

With UACGUAGGUGGUUUUCCCCUGAUAGUGCUAAGGGGGCCUGGAAGUUUGGACUGGGCAGAGCUCAACACAGCGUGGCAAAGUGGCUGUGGCUAGACUGCCUCUCUGGAUUCCUCGUCACGCAGCAGGGCAUCUCUGGGAGAAAUGCC, the self-cleavage turned out to be 0.94.

As for UACGUAGGUGGUUUUCCCCUGAUAGUGCUAAGGGGGCCUGGAAGUUUGGACUGGGCAGAGCUCAACACAGCGUGGCAAAGUGGCUGUGGCUAGACUGCCUCUCUGGAUUCCUCGUCACGCAGCAGGGCAUCUCUGAGAGAAAUGCC, the self-cleavage was found to be 1.63.

Regarding UACGUAGGUGGUUUUCCCCUGAUAGUGCUAAGGGGGCCUGGAAGUUUGGACUGGGCAGAGCUCAACACAGCGUGGCAAAGUGGCUGUGGCUAGACUGCCUCUCUGGAUUCCUCGUCACACAGCAGGGCAUCUCUGAGAGAAAUGCC, the self-cleavage stood at 1.44.

As to UACGUAGGUGGUUUUCCCCUGAUAGUGCUAAGGGGGCCUGGAAGUUUGGACUGGGCAGAGCUCAACACAGCGUGGCAAAGUGGCUGUGGCUAGACUGCCUCUCUGGAUUCCUCGUCACCCAGCAGGGCAUCUCUGAGAGAAAUGCC, the self-cleavage was 1.59.

In the case of UACGUAGGUGGUUUUCCCCUGAUAGUGCUAAGGGGGCCUGGAAGUUUGGACUGGGCAGAGCUCAACACAGCGUGGCAAAGUGGCUGUGGCUAGACUGCCUCUCUGGAUUCCUCGUCACACAGCAGGGCAUCUCUGAGAGAGAUGCC, the self-cleavage turned out to be 1.74.

For UACGUAGGUGGUUUUCCCCUGAUAGUGCUAAGGGGGCCUGGAAGUUUGGACUGGGCAGAGCUCAACACAGCGUGGCAAAGUGGCUGUGGCUAGACUGCCUCUCUGGAUUCCUCGUCACACAGCAGGGCAUCUCUGGGAGAAAUGCC, the self-cleavage turned out to be 1.12.

Regarding UACGUAGGUGGUUUUCCCCUGAUAGUGCUAAGGGGGCCUGGAAGUUUGGACUGGGCAGAGCUCAACACAGCGUGGCAAAGUGGCUGUGGCUAGACUGCCUCUCUGGAUUCCUCGUCACACAGCAGGGCAUCUCUGAGAGGAAUGCC, the self-cleavage turned out to be 1.29.

In the case of UACGUAGGUGGUUUUCCCCUGAUAGUGCUAAGGGGGCCUGGAAGUUUGGACUGGGCAGAGCUCAACACAGCGUGGCAAAGUGGCUGUGGCUAGACUGCCUCUCUGGAUUCCUCGUCACACAGCAGGGCAUCUCUGAGAGUAAUGCC, the self-cleavage is 1.69.

On to UACGUAGGUGGUUUUCCCCUGAUAGUGCUAAGGGGGCCUGGAAGUUUGGACUGGGCAGAGCUCAACACAGCGUGGCAAAGUGGCUGUGGCUAGACUGCCUCUCUGGAUUCCUCGUCACACGGCAGGGCAUCUCUGAGAGAAAUGCC, for which the self-cleavage was found to be 1.27.

Take UACGUAGGUGGUUUUCCCCUGAUAGUGCUAAGGGGGCCUGGAAGUUUGGACUGGGCAGAGCUCAACACAGCGUGGCAAAGUGGCUGUGGCUAGACUGCCUCUCUGGAUUCCUCGUCACCCGGCAGGGCAUCUCUGAGAGAAAUGCC: the self-cleavage worked out at 1.23.

Take UACGUAGGUGGUUUUCCCCUGAUAGUGCUAAGGGGGCCUGGAAGUUUGGACUGGGCAGAGCUCAACACAGCGUGGCAAAGUGGCUGUGGCUAGACUGCCUCUCUGGAUUCCUCGUCACCCAGCAGGGCAUCCCUGAGAGAAAUGCC: the self-cleavage was 2.32.

Turning to UACGUAGGUGGUUUUCCCCUGAUAGUGCUAAGGGGGCCUGGAAGUUUGGACUGGGCAGAGCUCAACACAGCGUGGCAAAGUGGCUGUGGCUAGACUGCCUCUCUGGAUUCCUCGUCACCCAGCAGGGCAUCGCUGAGAGAAAUGCC, the self-cleavage came to 2.83.

As for UACGUAGGUGGUUUUCCCCUGAUAGUGCUAAGGGGGCCUGGAAGUUUGGACUGGGCAGAGCUCAACACAGCGUGGCAAAGUGGCUGUGGCUAGACUGCCUCUCUGGAUUCCUCGUCACCCAGCAGGGCAUCUCUGAGUGAAAUGCC, the self-cleavage was determined as 1.67.

On to UACGUAGGUGGUUUUCCCCUGAUAGUGCUAAGGGGGCCUGGAAGUUUGGACUGGGCAGAGCUCAACACAGCGUGGCAAAGUGGCUGUGGCUAGACUGCCUCUCUGGAUUCCUCGUCACACAGCAGGGCAUCUCUGAGGGAAAUGCC, for which the self-cleavage stood at 2.02.

UACGUAGGUGGUUUUCCCCUGAUAGUGCUAAGGGGGCCUGGAAGUUUGGACUGGGCAGAGCUCAACACAGCGUGGCAAAGUGGCUGUGGCUAGACUGCCUCUCUGGAUUCCUCGUCACCCAGCAGGGCAUCUCUGAGAGUAAUGCC: the self-cleavage worked out at 0.97.

For UACGUAGGUGGUUUUCCCCUGAUAGUGCUAAGGGGGCCUGGAAGUUUGGACUGGGCAGAGCUCAACACAGCGUGGCAAAGUGGCUGUGGCUAGACUGCCUCUCUGGAUUCCUCGUCACACAGCAGGGCAUCUCUGAGAGAAAAGCC, the self-cleavage stood at 1.16.

UACGUAGGUGGUUUUCCCCUGAUAGUGCUAAGGGGGCCUGGAAGUUUGGACUGGGCAGAGCUCAACACAGCGUGGCAAAGUGGCUGUGGCUAGACUGCCUCUCUGGAUUCCUCGUCACACAGCAGGGCAUCUCUGAGAGAACUGCC: the self-cleavage amounted to 1.95.

For UACGUAGGUGGUUUUCCCCUGAUAGUGCUAAGGGGGCCUGGAAGUUUGGACUGGGCAGAGCUCAACACAGCGUGGCAAAGUGGCUGUGGCUAGACUGCCUCUCUGGAUUCCUCGUCACGCAGCAGGGCAUCUCUGAGAGAAAUGCU, the self-cleavage stood at 1.86.

UACGUAGGUGGUUUUCCCCUGAUAGUGCUAAGGGGGCCUGGAAGUUUGGACUGGGCAGAGCUCAACACAGCGUGGCAAAGUGGCUGUGGCUAGACUGCCUCUCUGGAUUCCUCGUCACCCAGCAGGGCAUCUCCGAGAGAAAUGCC: the self-cleavage was 2.11.

Turning to UACGUAGGUGGUUUUCCCCUGAUAGUGCUAAGGGGGCCUGGAAGUUUGGACUGGGCAGAGCUCAACACAGCGUGGCAAAGUGGCUGUGGCUAGACUGCCUCUCUGGAUUCCUCGUCACCCAGCAGGGCAUCUCGGAGAGAAAUGCC, the self-cleavage worked out at 1.58.

UACGUAGGUGGUUUUCCCCUGAUAGUGCUAAGGGGGCCUGGAAGUUUGGACUGGGCAGAGCUCAACACAGCGUGGCAAAGUGGCUGUGGCUAGACUGCCUCUCUGGAUUCCUCGUCACCCAGCAGGGCAUCUCUGAGAGAAAAGCC: the self-cleavage is 1.94.

Regarding UACGUAGGUGGUUUUCCCCUGAUAGUGCUAAGGGGGCCUGGAAGUUUGGACUGGGCAGAGCUCAACACAGCGUGGCAAAGUGGCUGUGGCUAGACUGCCUCUCUGGAUUCCUCGUCACUAAGCAGGGCAUCUCUGAGAGAAAUGCC, the self-cleavage worked out at 1.41.

For the variant UACGUAGGUGGUUUUCCCCUGAUAGUGCUAAGGGGGCCUGGAAGUUUGGACUGGGCAGAGCUCAACACAGCGUGGCAAAGUGGCUGUGGCUAGACUGCCUCUCUGGAUUCCUCGUCACCCAGCAGUGCAUCUCUGAGAGAAAUGCC, the self-cleavage was found to be 1.67.

With UACGUAGGUGGUUUUCCCCUGAUAGUGCUAAGGGGGCCUGGAAGUUUGGACUGGGCAGAGCUCAACACAGCGUGGCAAAGUGGCUGUGGCUAGACUGCCUCUCUGGAUUCCUCGUCACCCAGCAGGGCAUCUCUGAGAGACAUGCC, the self-cleavage came out at 1.84.

Take UACGUAGGUGGUUUUCCCCUGAUAGUGCUAAGGGGGCCUGGAAGUUUGGACUGGGCAGAGCUCAACACAGCGUGGCAAAGUGGCUGUGGCUAGACUGCCUCUCUGGAUUCCUCGUCACCCAGCAGGGCAUCUCUGAGAGAUAUGCC: the self-cleavage worked out at 2.27.

In the case of UACGUAGGUGGUUUUCCCCUGAUAGUGCUAAGGGGGCCUGGAAGUUUGGACUGGGCAGAGCUCAACACAGCGUGGCAAAGUGGCUGUGGCUAGACUGCCUCUCUGGAUUCCUCGUCACCCAGAAGGGCAUCUCUGAGAGAAAUGCC, the self-cleavage is 1.36.

Turning to UACGUAGGUGGUUUUCCCCUGAUAGUGCUAAGGGGGCCUGGAAGUUUGGACUGGGCAGAGCUCAACACAGCGUGGCAAAGUGGCUGUGGCUAGACUGCCUCUCUGGAUUCCUCGUCACCCAGUAGGGCAUCUCUGAGAGAAAUGCC, the self-cleavage was 0.62.

For the variant UACGUAGGUGGUUUUCCCCUGAUAGUGCUAAGGGGGCCUGGAAGUUUGGACUGGGCAGAGCUCAACACAGCGUGGCAAAGUGGCUGUGGCUAGACUGCCUCUCUGGAUUCCUCGUCACACAGCAGGGCAUCCCUGAGAGAAAUGCC, the self-cleavage was 1.96.

Regarding UACGUAGGUGGUUUUCCCCUGAUAGUGCUAAGGGGGCCUGGAAGUUUGGACUGGGCAGAGCUCAACACAGCGUGGCAAAGUGGCUGUGGCUAGACUGCCUCUCUGGAUUCCUCGUCACACAGCAGGGCGUCUCUGAGAGAAAUGCC, the self-cleavage was determined as 1.45.

Turning to UACGUAGGUGGUUUUCCCCUGAUAGUGCUAAGGGGGCCUGGAAGUUUGGACUGGGCAGAGCUCAACACAGCGUGGCAAAGUGGCUGUGGCUAGACUGCCUCUCUGGAUUCCUCGUCACCCAGCAGGGCAUCUCUGAGAUAAAUGCC, the self-cleavage came to 1.47.

Consider UACGUAGGUGGUUUUCCCCUGAUAGUGCUAAGGGGGCCUGGAAGUUUGGACUGGGCAGAGCUCAACACAGCGUGGCAAAGUGGCUGUGGCUAGACUGCCUCUCUGGAUUCCUCGUCACACAGCAGGGCAUCUCUGAGAGAAAUACC, for which the self-cleavage is 1.68.

With UACGUAGGUGGUUUUCCCCUGAUAGUGCUAAGGGGGCCUGGAAGUUUGGACUGGGCAGAGCUCAACACAGCGUGGCAAAGUGGCUGUGGCUAGACUGCCUCUCUGGAUUCCUCGUCACACAACAGGGCAUCUCUGAGAGAAAUGCC, the self-cleavage worked out at 1.35.
